Consider 14 sequences from the DeepSol protein solubility set.

This data set can be described thus: soluble on expression in E. coli; label from the status in PepcDB or PDB records.
“MGSDKIHHHHHHMTTATPLLSLQKPTPIALAEIEESLSQLWANQQHSGAGALVSRAATFSIVVYEPEEFQQILAALGLYHGHLDGLHGPMTRAAIAQAQTQFGLPSTGRPDSATFKALRQAYQALKHSPSLTNQDLRGAVLSNVIATQNPCRIVSLCPTLEGDRPISAEVSAYCPITSAKQASLICCEAVTLRGSQAEMEAIGTFVSELLLPGLPRYVWWKATPNPEQLLFQQLANSCNCMIFDSSYFSDPEAEFLRFQDLIDQETYIADLNWHRLAAWQELTAAAFDPPERRDGLLEVDQLVIDYEKGNPAQALMYMGWIASRLGWQPVSYRCEGGEYDLRQIEFRTEDDRMVKVELAGIPVGDPGLVLGDLIALRLTSENPDADCCTILCSETTGCMRMEAGGGAQSCRTEQVAPPSNETSESLLAMQMQRWGRDALYEESLAVIAVALRQRTHA”: the “soluble on expression in E. coli” value was “not soluble”.

“VPGTVEVVFDKPEYRTGEEASALITFPEPVEDALLSLERDKVEATALLSKGADWLRLEKLNPTQYRVWIPVREEFSPNLTFSVLYTKGGDYSFQNAGIKVGMPQVEIDIATDKERYEPGETVTVTLATRFAGKPVSSHLTVSVVDEMVYALQAE”: the “soluble on expression in E. coli” value is recorded as “not soluble”.

In the case of “MSLFKSQTAILPEAGPFALYTLLKVRQNHAHVLQALKALPALVEEINQNQPGAELTVSVAFSKGFWSHFEMASPPELIDFPELGEGETHAPSTDVDVLIHCHATRHDLLFYTLRKGISDIAQDIEIVDETYGFRYLDARDMTGFIDGTENPKAEKRAEVALVADGDFAGGSYVMVQRFVHNLPAWNRLNLAAQEKVIGRTKPDSVELENVPAASHVGRVDIKEEGKGLKIVRHSLPYGSVSGDHGLLFIAYCHTLHNFKTMLESMYGVTDGKTDQLLRFTKAVTGAYFFAPSQVMLQELTLKNQEGGSHHHHHH”, the “soluble on expression in E. coli” value is listed as “soluble”.

With “MRPRYRASGPSSSPDRTSSQPGSRSMIQCKRVYEPASPADGRRVLVDRLWPRGIRKEALAMDDWLKEVAPSNEVRKQFCHDPALFDSFREHYRAELQAHPEHWWGLLDSAREGTLTLLYGAHDQQHNNAVVLAEFLEEELDRQQPGSSPTCYADRLS”, the “soluble on expression in E. coli” value is on record as “not soluble”.

Consider “MIEMKYILARATDEEIQKRGECGGAVTAIFKYMLDREIVDGVLTLERGDDIYDGIPVLLEDSDEIVSTCGSLHCAPTMFGDLISRYLNDMRLAVAVKPCDAMAIKELEKRHQIDPQRVYMIGLNCGGTLSPVSAREMIETFYEIDPDDVVREEIDKGKFIVELKDGSHKEISIDYLEEEGFGRRENCQRCELMVPRNADIACGNWGAEEGWTFIEVNTDRGEEIIEGARREGYLEVKEPPMKMIEIREKIENAMIKMARKFQDKYLEDEYPSLDDWDEYWKRCINCFACRDLCPICFCRECELEKDYLLESDEKAPDPLTFQGVRLSHMGFSCINCGQCEDVCPMDIPLARIYHRIQRKYRDRTGFTAGVSEELPPMYSGEKDLEHHHHHH”, for which the “soluble on expression in E. coli” value is “soluble”.

Turning to “MGSDKIHHHHHHMVMLKMKKTIAYYRSSTDLQENSIEMQQIKAFEYSMKKRITIDEEYVDKDVSARKKTLMQRPGMNKLMKEIEAGVVGSIIVYKRDRFARKLQEHMQLYRLFQEYDIDVYFSSDSEVQMNYSPIGEYIEAILGSICENEGSLIAQRIQETKIAKFLSGKYAGNLPYGYEKGEPNADGQVNILQVSHEIEVVKEIYNALLNKECKSIQELCNDLNEKYKTEETKDWDQSKVVNIVKNPIYHGLRVMNFGSKEYKKAYKNIKVVEKTDWDIANEQLDKMIVKRETGKETIQFLLENILYCHECQKPLIAKKRMRSYQDYYIYECKEHDVCVEAGYIEVEILKHAKTFFHRLLDENFNELYERSTYQNVRKIKKLIGSQEMIIKGVTKKVGKLIDQWLNCQKMQREHEGNDCAKCQSNQHIGEIKEANEILKSEKRKLQHLDMRLYEIKNFKEKAKEWITHLECPKDILLLEKEERKRFYRDMIHCIQVDSWEYHIVFKHPFMLIQEVHQNSETV”, the “soluble on expression in E. coli” value was “not soluble”.

Take “SLVSSMHDLLLRNVRPMAGEACDIMIRNGKITGFGKFDAEPGLPVEDGKGAIAVPGLIDAHTHLDKTTWGMPWHVNNRAAILRERIDFERENRVQIGIDPHRQSMRHAIGLAANGGTHIRSHVDIDPTHGLKLVEGIWETREKLDGIIDIEVVAFPQSGVMVMPGTVELLDEALKQGCEVLGGIDPCGIDRDPKGQLDILFQLATKHGVPIDIHLHEAADLGAFTMELIFERIRANGMQGNVAISHAFALGMNDYLRVGRLIDEIARLDVAILTTGAPSASVPSIMRLKEAGVRVGGGCDGIRDTWGPWGQPDMLDRAKIIGMKNGLRSDVELAHVLHVVSRGGADVMGIEDYGMEIGCAADFTLLTGETLAHAVVDITPRPLVVKGGRVTARNGKAIVEAP”: the “soluble on expression in E. coli” value is reported as “soluble”.

Take “AIANDDRATAFNALKNKTVCVQGDGNSRQFYHALVEILSNHSSAIPVNKNGNDFCNAPFAQCPQDTYYFDLVDKSDNLSVKLYWRWAPEFSDIECPMKVPSGFTPGSNYSFPSGPDTLSCDINIMDAGQWELFEKDANVTTAGYSQGVSNLSKCFSSDKSAKYFWIAAYALTPEQLQIHLPYNNTDVERINEVATQGLNSTACVLNGYDVTVNAFNDTKEATTDGIHYLGWINEQVVHLFFNAVTNSSAPTVPSSNVSVTSPNVQLGQVPNLNPSTTNSFLPVQTIVTVPSSSATSASSGLNFGGSSQGGGSGIPQL”: the “soluble on expression in E. coli” value is “soluble”.

As to “MSKQELDAALKKAKELASSAPVVVFSKTYCGYCNRVKQLLTQVGASYKVVELDELSDGSQLQSALAHWTGRGTVPNVFIGGKQIGGCDTVVEKHQRNELLPLLQDAAATAKTSAQL”, the “soluble on expression in E. coli” value was “soluble”.

On to “MNRFFILSGCSGGGKSTLLAELARRGFATVEEPGRRIVIEETRNGGTALPWIDMQAFARRAIAMALEDRRVTPKEGLVFFDRGLIDAASALHHISGDRFVNTLRDTHRYNSLVFLTPPWPEIYQSDDERKHGFDAAVEEYERLVRDYEGLGYDIVVLPKSAVAERADLILTRIGLEHHHHHH”, for which the “soluble on expression in E. coli” value is reported as “not soluble”.

Take “MGSHHHHHHDITSLYKKAGSAAAVLEENLYFQGSFTMRRKVFEELVTATKILLNEGIMDTFGHISARDPEDPASFFLAQKLAPSLITVDDIQRFNLDGETSDNRPSYLERYIHSEIYKTRPDVQCVLHTHSPAVLPYCFVDTPLRPVTHMGAFIGESVPVYEIRDKHGDETDLFGGSPDVCADIAESLGSQTVVLMARHGVVNVGKSVREVVFRAFYLEQEAAALTAGLKIGNVKYLSPGEIKTAGKLVGAQIDRGWNHWSQRLRQAGLA”: the “soluble on expression in E. coli” value is listed as “soluble”.

Consider “MGKIKIGINGFGRIGRLVARVALQSEDVELVAVNDPFITTDYMTYMFKYDTVHGQWKHSDIKIKDSKTLLLGEKPVTVFGIRNPDEIPWAEAGAEYVVESTGVFTDKEKAAAHLKGGAKKVVISAPSKDAPMFVCGVNEDKYTSDIDIVSNASCTTNCLAPLAKVIHDNFGIIEGLMTTVHAITATQKTVDGPSSKDWRGGRAASFNIIPSSTGAAKAVGKVLPDLNGKLTGMSFRVPTVDVSVVDLTVRIEKAASYDAIKSAIKSASEGKLKGIIGYVEEDLVSTDFVGDSRSSIFDAKAGIALNDNFVKLVAWYDNEWGYSNRVIDLIRHMAKTQ”, for which the “soluble on expression in E. coli” value was “soluble”.

“MGSDKIHHHHHHMVVESGFTAAQLPWLEGPRQAFLAQLTRQKMPHAQLVGIDSAYGGELLSVFMARAAMCLQPTPAGACGFCKSCQLFDAGNHPDFYHIAADGNQIKVDQIRELCTRLTATAQQSGMRVAIIHHSERLNSAAANALLKTLEEPGKDTLLILQSDTPARLMATVGSRCQRIPFVVPSREIIKNWLAQQCDIKEDVTWCLSVVGGPLQLAESLQSEGGQQSRYQSLLQFRKDWAQSLSSGHLCASLLTISEQQIIDVLKVLYLLIRQVLLKNSHQDAFIHAQLGNLAAKIMGMCHSLSTMPSVNYLALCQSYVLEYREITNK”: the “soluble on expression in E. coli” value was “not soluble”.

With “MFQKILIANRGEIAVRIMKTCQKLGIRTVAIYSEADENALHVKMANEAYLVGGPRVQESYLNLEKIIEIAKKTNAEAIHPGYGLLSENPSFPVRCKEEGIVFIGPSEEIITKMGSKIESRIAMQAADVPVVPGITTNIETAEEAIEIAKQIGYPLMLKASAGGGGIGMQLMETEQTLTKAFESNKTRAQNFFGNGEMYLERYIADAHHIEIQLLADTHGNTVYLWERECSVQRRNQKVIEEAPSPFLDEGTRKAMGEIAVQAAKALGYTNAGTVEFLVDEQKNFYFLEMNTRLQVEHPVTEEITGLDLVEQQLLIAYGEKLSFTQDDIKRSGHAIEARIYAEDPKTFFPSPGKITDLTLPTNVRIDHFLENQVTITPFYDPMIAKVIAHGETREEAISKLHDALEELKVEGIKTNTPMLLQVLEDDVFKSGIYTTGFVTKQLVKK”, the “soluble on expression in E. coli” value is recorded as “not soluble”.
